# Data as given in patent US20200190168A1 (US Dept. of Health and Human Services, published 2020).
# B1: CR2 (complement receptor 2, CD21) on IgG+ B cells of human PBMCs (receptor)
# chain: ISCGSPPPILNGRISYYSTPIAVGTVIRYSCSGTFRLIGEKSLLCITKDKVDGTWDKPAPKCEYFNKYSSCPEPIVPGGYKIRGSTPYRHGDSVTFACKTNFSMNGNKSVWCQANNMWGPTRLPTCVSVFPLECPALPMIHNGHHTSENVGSIAPGLSVTYSCESGYLLVGEKIINCLSSGKWSAVPPTCEEARCKSLGRFPNGKVKEPPILRVGVTANFFCDEGYRLQGPPSSRCVIAGQGVAWTKMPVCEEIFCPSPPPILNGRHIGNSLANVSYGSIVTYTCDPDPEEGVNFILIGESTLRCTVDSQKTGTWSGPAPRCELSTSAVQCPHPQILRGRMVSGQKDRYTYNDTVIFACMFGFTLKGSKQIRCNAQGTWEPSAPVCEKECQAPPNILNGQKEDRHMVRFDPGTSIKYSCNPGYVLVGEESIQCTSEGVWTPPVPQCKVAACEATGRQLLTKPQHQFVRPDVNSSCGEGYKLSGSVYQECQGTIPWFMEIRLCKEITCPPPPVIYNGAHTGSSLEDFPYGTTVTYTCNPGPERGVEFSLIGESTIRCTSNDQERGTWSGPAPLCKLSLLAVQCSHVHIANGYKISGKEAPYFYNDTVTFKCYSGFTLKGSSQIRCKADNTWDPEIPVCEKETCQHVRQSLQELPAGSRVELVNTSCQDGYQLTGHAYQMCQDAENGIWFKKIPLCKVIHCHPPPVIVNGKHTGMMAENFLYGNEVSYECDQGFYLLGEKKLQCRSDSKGHGSWSGPSPQCLRSPPVTRCPNPEVKHGYKLNKTHSAYSHNDIVYVDCNPGFIMNGSRVIRCHTDNTWVPGVPTCIKKAFIGCPPPPKTPNGNHTGGNIARFSPGMSILYSCDQGYLLVGEALLLCTHEGTWSQPAPHCKEVNCSSPADMDGIQKGLEPRKMYQYGAVVTLECEDGYMLEGSPQSQCQSDHQWNPPLAVCRSRSLAPVLCGIAAGLILLTFLIVITLYVISKHRARNYYTDTSQKEAFHLEAREVYSVDPYNPAS
# notes: whole, on cells; also called gp350 receptor
# B2: CR2-Ig (chimeric molecule of CR2 SCR1-2 domain and IgG Fc region) (Fc fusion)
# chain: ISCGSPPPILNGRISYYSTPIAVGTVIRYSCSGTFRLIGEKSLLCITKDKVDGTWDKPAPKCEYFNKYSSCPEPIVPGGYKIRGSTPYRHGDSVTFACKTNFSMNGNKSVWCQANNMWGPTRLPTCVSVFPLE
# notes: domain: SCR1-2; not shown: IgG Fc region
# Experiments:
# [1] = biological target: T1, gp350 B95-8 (2-425) D296R Avi-His (Epstein Barr Virus (B95-8), UniProt P03200 2-425); assay: flow cytometry staining of IgG+ B cells in human PBMCs, co-stained with anti-CD21
# T1 construct: also called D296R gp350 probe; D296R mutant
# [2] = biological target: T2, gp350 B95-8 (2-425) D296R/I160R Avi-His (Epstein Barr Virus (B95-8), UniProt P03200 2-425); assay: as above
# T2 construct: also called gp350 D296R/I160R probe
# [3] = biological target: T2, gp350 B95-8 (2-425) D296R/I160R Avi-His; assay: biolayer interferometry (Octet), CR2-Ig on protein A biosensors
# [4] = biological target: gp350 B95-8 (2-425) D296R/P158R Avi-His (Epstein Barr Virus (B95-8), UniProt P03200 2-425); assay: as above
# [5] = biological target: T3, gp350 B95-8 (2-425) D296R/P158N*/I160T Avi-His (Epstein Barr Virus (B95-8), UniProt P03200 2-425); assay: as above
# T3 construct: also called D296R/P158N/I160T (glycan addition at 158)
# [6] = biological target: gp350 B95-8 (2-425) D296R/P158R/I160R Avi-His (Epstein Barr Virus (B95-8), UniProt P03200 2-425); assay: as above
binder,measurement,setting,value
B1,binding result,[1],binds
same,binding result,[2],no binding
B2,binding result,[3],no binding
same,binding result,[4],no binding
same,binding result,[5],no binding
same,binding result,[6],no binding
